This is an account of results in paper PMC5745067 (Neuron, 2017).

To fix the notation:
B1: extracellular domain of rat NLGN2 (Val43-His612, containing the site A insert) (domain or fragment, UniProt Q62888-1 43-612, looked up)
chain: VVNTAYGRVRGVRRELNNEILGPVVQFLGVPYATPPLGARRFQPPEAPASWPGVRNATTLPPACPQNLHGALPAIMLPVWFTDNLEAAATYVQNQSEDCLYLNLYVPTEDGPLTKKRDEATLNPPDTDIRDSGKKPVMLFLHGGSYMEGTGNMFDGSVLAAYGNVIVATLNYRLGVLGFLSTGDQAAKGNYGLLDQIQALRWLSENIAHFGGDPERITIFGSGAGASCVNLLILSHHSEGLFQKAIAQSGTAISSWSVNYQPLKYTRLLAAKVGCDREDSTEAVECLRRKSSRELVDQDVQPARYHIAFGPVVDGDVVPDDPEILMQQGEFLNYDMLIGVNQGEGLKFVEDSAESEDGVSASAFDFTVSNFVDNLYGYPEGKDVLRETIKFMYTDWADRDNGEMRRKTLLALFTDHQWVAPAVATAKLHADYQSPVYFYTFYHHCQAEGRPEWADAAHGDELPYVFGVPMVGATDLFPCNFSKNDVMLSAVVMTYWTNFAKTGDPNQPVPQDTKFIHTKPNRFEEVVWSKFNSKEKQYLHIGLKPRVRDNYRANKVAFWLELVPHLHNLH

In one series the target is NLGN2-Fc (UniProt Q8NFZ4). The series can be described thus: cell-surface binding assay. The note with it: cited from earlier work.
The target in another series is neurexin 1β (UniProt P58400). The experiment in a line: SPR. The note with it: cited from earlier work.
The series “crystal structure” deals with the molecule itself. The series can be described thus: crystal structure.
Series [1] concerns the target B1. The series can be described thus: fluorescence polarisation.

Sequence of NLGN2-Fc (Q8NFZ4 15-677): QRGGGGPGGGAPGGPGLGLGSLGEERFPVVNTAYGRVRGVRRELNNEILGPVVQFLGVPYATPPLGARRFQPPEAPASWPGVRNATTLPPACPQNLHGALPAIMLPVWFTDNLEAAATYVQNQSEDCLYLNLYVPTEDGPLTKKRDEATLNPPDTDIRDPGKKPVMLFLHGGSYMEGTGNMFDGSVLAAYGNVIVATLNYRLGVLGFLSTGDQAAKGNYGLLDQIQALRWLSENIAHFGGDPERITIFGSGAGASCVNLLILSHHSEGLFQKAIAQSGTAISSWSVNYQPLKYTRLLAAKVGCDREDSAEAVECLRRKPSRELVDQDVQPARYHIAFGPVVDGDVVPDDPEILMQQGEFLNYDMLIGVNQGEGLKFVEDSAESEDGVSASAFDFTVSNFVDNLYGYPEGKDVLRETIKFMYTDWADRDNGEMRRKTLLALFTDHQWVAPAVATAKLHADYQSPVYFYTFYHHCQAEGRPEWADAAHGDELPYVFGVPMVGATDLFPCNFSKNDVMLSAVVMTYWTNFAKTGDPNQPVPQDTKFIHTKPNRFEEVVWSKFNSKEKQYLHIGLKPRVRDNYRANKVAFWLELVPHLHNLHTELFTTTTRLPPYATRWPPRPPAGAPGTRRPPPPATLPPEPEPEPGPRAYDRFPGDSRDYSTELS
Sequence of neurexin 1β (P58400 51-396): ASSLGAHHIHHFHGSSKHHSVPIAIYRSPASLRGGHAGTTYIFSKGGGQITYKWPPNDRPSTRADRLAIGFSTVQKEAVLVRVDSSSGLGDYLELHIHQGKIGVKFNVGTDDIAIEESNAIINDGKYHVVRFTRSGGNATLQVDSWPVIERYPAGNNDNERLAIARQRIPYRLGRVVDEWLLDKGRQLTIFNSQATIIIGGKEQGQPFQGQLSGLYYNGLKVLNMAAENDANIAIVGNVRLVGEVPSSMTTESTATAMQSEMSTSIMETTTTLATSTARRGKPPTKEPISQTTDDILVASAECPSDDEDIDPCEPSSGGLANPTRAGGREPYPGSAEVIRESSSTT

For the molecule MDGA2 (from UniProt Q7Z553), the Kd with NLGN2-Fc is 46 nM.

MDGA1 (from UniProt Q8NFP4): in the series with NLGN2-Fc, the Kd was 7 nM.

As to NLGN1 (from UniProt Q62765), the Kd in the series with neurexin 1β is above 10000 nM.

B1: in the series “crystal structure”, the “stoichiometry N” value turned out to be 2.

B2: MDGA1 C8 (Ig1–Ig2; Y22-T237) (domain or fragment, human, UniProt Q8NFP4-1 22-237, looked up)
chain: YAPAQAQIVHAGQACVVKEDNISERVYTIREGDTLMLQCLVTGHPRPQVRWTKTAGSASDKFQETSVFNETLRIERIARTQGGRYYCKAENGVGVPAIKSIRVDVQYLDEPMLTVHQTVSDVRGNFYQEKTVFLRCTVNSNPPARFIWKRGSDTLSHSQDNGVDIYEPLYTQGETKVLKLKNLRPQDYASYTCQVSVRNVCGIPDKAITFRLTNTT
modifications: TAMRA label ((5/6)-TAMRA-SE) in the FP assays; no label told for the crystals
B2: in series [1], binding was characterised by a dissociation constant (Kd) of 21 nM.

B3: MDGA1 C4 (Ig1–Ig4; Y22-I433) (domain or fragment, human, UniProt Q8NFP4-1 22-433, looked up)
chain: YAPAQAQIVHAGQACVVKEDNISERVYTIREGDTLMLQCLVTGHPRPQVRWTKTAGSASDKFQETSVFNETLRIERIARTQGGRYYCKAENGVGVPAIKSIRVDVQYLDEPMLTVHQTVSDVRGNFYQEKTVFLRCTVNSNPPARFIWKRGSDTLSHSQDNGVDIYEPLYTQGETKVLKLKNLRPQDYASYTCQVSVRNVCGIPDKAITFRLTNTTAPPALKLSVNETLVVNPGENVTVQCLLTGGDPLPQLQWSHGPGPLPLGALAQGGTLSIPSVQARDSGYYNCTATNNVGNPAKKTVNLLVRSMKNATFQITPDVIKESENIQLGQDLKLSCHVDAVPQEKVTYQWFKNGKPARMSKRLLVTRNDPELPAVTSSLELIDLHFSDYGTYLCMASFPGAPVPDLSVEVNI
modifications: TAMRA label ((5/6)-TAMRA-SE) in the FP assay
For the molecule B3, the binding result in series [1] is recorded as “binds”.

B4: MDGA1 C2 (Ig1–Ig3; Y22-K330) (domain or fragment, human, UniProt Q8NFP4-1 22-330, looked up)
chain: YAPAQAQIVHAGQACVVKEDNISERVYTIREGDTLMLQCLVTGHPRPQVRWTKTAGSASDKFQETSVFNETLRIERIARTQGGRYYCKAENGVGVPAIKSIRVDVQYLDEPMLTVHQTVSDVRGNFYQEKTVFLRCTVNSNPPARFIWKRGSDTLSHSQDNGVDIYEPLYTQGETKVLKLKNLRPQDYASYTCQVSVRNVCGIPDKAITFRLTNTTAPPALKLSVNETLVVNPGENVTVQCLLTGGDPLPQLQWSHGPGPLPLGALAQGGTLSIPSVQARDSGYYNCTATNNVGNPAKKTVNLLVRSMK
modifications: TAMRA label ((5/6)-TAMRA-SE) in the FP assay
B4: in series [1], the binding result was “binds”.

What is called Kd is the free concentration of one partner at which half of the binding sites on the other are occupied at equilibrium, for simple one-to-one binding. The stoichiometry N is a count of units in the complex or per binding partner.
